± gives the standard deviation of the averaged measurements.
Experiment: total protein half-life in vivo (active degradation + dilution); higher = more stable protein
[1] = E. coli NCM3722 delta-clpP delta-lon delta-hslV, growth: N-lim chemostat, doubling time 6 h
[2] = E. coli NCM3722 delta-clpP, growth: N-lim chemostat, doubling time 6 h
[3] = E. coli NCM3722 delta-hslV, growth: N-lim chemostat, doubling time 6 h
[4] = E. coli NCM3722 delta-lon, growth: N-lim chemostat, doubling time 6 h
[5] = E. coli NCM3722 delta-smpB, growth: N-lim chemostat, doubling time 6 h
[6] = wild type E. coli NCM3722, growth: C-lim chemostat, doubling time 3 h
[7] = wild type E. coli NCM3722, growth: C-lim chemostat, doubling time 6 h
[8] = wild type E. coli NCM3722, growth: C-lim chemostat, doubling time 12 h
[9] = wild type E. coli NCM3722, growth: N-lim chemostat, doubling time 6 h
[10] = wild type E. coli NCM3722, growth: N-lim chemostat, doubling time 12 h
[11] = wild type E. coli NCM3722, growth: P-lim chemostat, doubling time 6 h
[12] = wild type E. coli NCM3722, growth: P-lim chemostat, doubling time 12 h

| Sequence | total protein half-life in vivo [1] | total protein half-life in vivo [2] | total protein half-life in vivo [3] | total protein half-life in vivo [4] | total protein half-life in vivo [5] | total protein half-life in vivo [6] | total protein half-life in vivo [7] | total protein half-life in vivo [8] | total protein half-life in vivo [9] | total protein half-life in vivo [10] | total protein half-life in vivo [11] | total protein half-life in vivo [12] |
| --- | --- | --- | --- | --- | --- | --- | --- | --- | --- | --- | --- | --- |
| MSHPALTQLRALRYCKEIPALDPQLLDWLLLEDSMTKRFEQQGKTVSVTMIREGFVEQNEIPEELPLLPKESRYWLREILLCADGEPWLAGRTVVPVSTLSGPELALQKLGKTPLGRYLFTSSTLTRDFIEIGRDAGLWGRRSRLRLSGKPLLLTELFLPASPLY | 4.9 ± 0.4 h | 2.28 ± 0.017 h | 3.04 ± 0.035 h | 3.5 ± 0.31 h | 2.14 ± 0.061 h | 2.41 ± 0.13 h | 4.27 ± 0.27 h | 7.06 ± 0.53 h | 3.15 ± 0.3 h | 4.66 ± 0.034 h | 4.77 ± 0.55 h | 8.85 ± 0.47 h |
| MSHQKIIQDLIAWIDEHIDQPLNIDVVAKKSGYSKWYLQRMFRTVTHQTLGDYIRQRRLLLAAVELRTTERPIFDIAMDLGYVSQQTFSRVFRRQFDRTPSDYRHRL [P0A9E2] | 6.13 ± 1.3 h | – | – | – | – | – | – | – | – | – | – | – |
| MSHRDTLFSAPIARLGDWTFDERVAEVFPDMIQRSVPGYSNIISMIGMLAERFVQPGTQVYDLGCSLGAATLSVRRNIHHDNCKIIAIDNSPAMIERCRRHIDAYKAPTPVDVIEGDIRDIAIENASMVVLNFTLQFLEPSERQALLDKIYQGLNPGGALVLSEKFSFEDAKVGELLFNMHHDFKRANGYSELEISQKRSMLENVMLTDSVETHKARLHNAGFEHSELWFQCFNFGSLVALKAEDAA | 4.36 ± 0.1 h | 4.266 ± 0.023 h | 3.422 ± 0.01 h | 4.69 ± 0.25 h | 3.28 ± 0.41 h | 2.85 ± 0.079 h | 4.75 ± 0.061 h | 6.64 ± 0.99 h | 3.17 ± 0.74 h | 4.86 ± 0.5 h | 4.66 ± 0.48 h | 9.24 ± 0.053 h |
| MSHTIRDKQKLKARASKIQGQVVALKKMLDEPHECAAVLQQIAAIRGAVNGLMREVIKGHLTEHIVHQGDELKREEDLDVVLKVLDSYIK | 7.38 ± 0.4 h | 7.02 ± 0.26 h | – | 6.29 ± 0.15 h | – | > 4 h | 7.3 ± 0.65 h | 10.8 h | 5.53 ± 0.39 h | 11.2 h | 4.14 ± 1.8 h | 11.9 ± 0.86 h |
| MSIDRTSPLKPVSTVQPRETTDAPVTNSRAAKTTASTSTSVTLSDAQAKLMQPGSSDINLERVEALKLAIRNGELKMDTGKIADALINEAQQDLQSN [P0AEM4] | – | – | – | – | – | 0.693 ± 0.42 h | 0.442 h | 0.862 ± 0.19 h | – | – | – | – |
| MSIDWNWGIFLQQAPFGNTTYLGWIWSGFQVTIALSICAWIIAFLVGSFFGILRTVPNRFLSGLGTLYVELFRNVPLIVQFFTWYLVIPELLPEKIGMWFKAELDPNIQFFLSSMLCLGLFTAARVCEQVRAAIQSLPRGQKNAALAMGLTLPQAYRYVLLPNAYRVIVPPMTSEMMNLVKNSAIASTIGLVDMAAQAGKLLDYSAHAWESFTAITLAYVLINAFIMLVMTLVERKVRLPGNMGGK [P0AER3] | 6.3 ± 0.68 h | 5.73 ± 0.57 h | 7.02 ± 1.3 h | 6.414 ± 0.029 h | 5.64 ± 0.34 h | 3.1 ± 0.078 h | 5.71 ± 1.4 h | 12.4 h | 5.35 ± 0.4 h | 12.1 ± 4.6 h | 6.73 h | 12.4 ± 1.9 h |
| MSIEIANIKKSFGRTQVLNDISLDIPSGQMVALLGPSGSGKTTLLRIIAGLEHQTSGHIRFHGTDVSRLHARDRKVGFVFQHYALFRHMTVFDNIAFGLTVLPRRERPNAAAIKAKVTKLLEMVQLAHLADRYPAQLSGGQKQRVALARALAVEPQILLLDEPFGALDAQVRKELRRWLRQLHEELKFTSVFVTHDQEEATEVADRVVVMSQGNIEQADAPDQVWREPATRFVLEFMGEVNRLQGTIRGGQFHVGAHRWPLGYTPAYQGPVDLFLRPWEVDISRRTSLDSPLPVQVLEASPKGHYTQLVVQPLGWYNEPLTVVMHGDDAPQRGERLFVGLQHARLYNGDERIETRDEELALAQSA | 6.63 ± 1.7 h | 5.04 ± 1.5 h | 2.09 ± 0.0062 h | 2.01 ± 0.088 h | 2.01 ± 0.032 h | 2.4 ± 1.4 h | 3.58 ± 2.8 h | 2.68 ± 0.037 h | 2.08 ± 0.11 h | 2.85 ± 0.09 h | 2.65 ± 0.42 h | 4.77 ± 0.37 h |
| MSIKTSNTDFKTRIRQQIEDPIMRKAVANAQQRIGANRQKMVDELGHWEEWRDRAAQIRDHVLSNLDAYLYQLSEKVTQNGGHVYFARTKEDATRYILQVAQRKNARKVVKSKSMVTEEIGVNHVLQDAGIQVIETDLGEYILQLDQDPPSHVVVPAIHKDRHQIRRVLHERLGYEGPETPEAMTLFIRQKIREDFLSAEIGITGCNFAVAETGSVCLVTNEGNARMCTTLPKTHIAVMGMERIAPTFAEVDVLITMLARSAVGARLTGYNTWLTGPREAGHVDGPEEFHLVIVDNGRSEVLASEFRDVLRCIRCGACMNTCPAYRHIGGHGYGSIYPGPIGAVISPLLGGYKDFKDLPYACSLCTACDNVCPVRIPLSKLILRHRRVMAEKGITAKAEQRAIKMFAYANSHPGLWKVGMMAGAHAASWFINGGKTPLKFGAISDWMEARDLPEADGESFRSWFKKHQAQEKKNG | 5.21 ± 0.71 h | – | 3.96 ± 3.1 h | – | 1.76 ± 0.072 h | 1.83 ± 0.084 h | 3.47 ± 0.48 h | 4.06 ± 0.2 h | 1.72 h | – | 1.89 h | 3.14 ± 0.62 h |
| MSILYEERLDGALPDVDRTSVLMALREHVPGLEILHTDEEIIPYECDGLSAYRTRPLLVVLPKQMEQVTAILAVCHRLRVPVVTRGAGTGLSGGALPLEKGVLLVMARFKEILDINPVGRRARVQPGVRNLAISQAVAPHNLYYAPDPSSQIACSIGGNVAENAGGVHCLKYGLTVHNLLKIEVQTLDGEALTLGSDALDSPGFDLLALFTGSEGMLGVTTEVTVKLLPKPPVARVLLASFDSVEKAGLAVGDIIANGIIPGGLEMMDNLSIRAAEDFIHAGYPVDAEAILLCELDGVESDVQEDCERVNDILLKAGATDVRLAQDEAERVRFWAGRKNAFPAVGRISPDYYCMDGTIPRRALPGVLEGIARLSQQYDLRVANVFHAGDGNMHPLILFDANEPGEFARAEELGGKILELCVEVGGSISGEHGIGREKINQMCAQFNSDEITTFHAVKAAFDPDGLLNPGKNIPTLHRCAEFGAMHVHHGHLPFPELERF [P0AEP9] | – | – | – | – | – | 1.69 ± 0.022 h | 3.62 ± 0.18 h | 5.4 ± 0.53 h | – | – | 2.38 ± 0.24 h | 5.7 ± 3.1 h |
